In US7026443:

Columns and labels:
HLA-A*0301 (human) [1] = assay: competition with 125I-labeled standard probe peptide for purified HLA, gel filtration
HLA-A*1101 (human) [2] = assay: as above
HLA-A*1101 (human) [3] = assay: competition with 125I-radiolabeled standard probe peptide for purified HLA-A*1101, gel filtration
HLA-A*0301 (human) [4] = assay: competition against a 125I-labeled standard probe peptide for purified HLA-A*0301, gel filtration; relative binding
HLA-A*0101 (human) = assay: competition with 125I-labelled standard peptide for purified HLA-A*0101, bound and free separated by gel filtration
HLA-B*0702 (human) = assay: competition with 125I-labelled standard peptide for purified HLA, gel filtration; relative binding
HLA-B*3501 (human) = assay: as above
HLA-B*5101 (human) = assay: as above
HLA-B*5301 (human) = assay: as above
[5] = biological target: purified HLA-A*0201 molecules (human); assay: competition with 125I-labelled standard probe peptide for purified HLA-A*0201; bound and free peptide separated by gel filtration
HLA-A*0301 (human) [6] = assay: competition of unlabeled peptide with 125I-labeled standard probe peptide for purified HLA-A*0301, gel filtration
HLA-A*1101 (human) [7] = assay: competition with a 125I-labeled standard probe peptide for purified HLA-A*1101, gel filtration
HLA-A*1101 (human) [8] = assay: inhibition of binding of a 125I-labelled standard peptide to purified HLA-A*1101, with gel filtration separation
HLA-A*1101 (human) [9] = assay: competition against a 125I-labelled standard probe peptide for purified HLA-A*1101, bound and free separated by gel filtration; value relative to the standard peptide
HLA-A*1101 (human) [10] = assay: competition of unlabeled peptide with 125I-labeled standard probe peptide for purified HLA-A*1101, gel filtration

YVQAIVDKK (modifications not checked) [HPV18 E1 peptide … (position 19, 9 amino acids)] was tested, and the relative binding ratio (IC50 of standard peptide / IC50 of test peptide) (ratio to standard peptide) (HLA-A*0301 (human) [1]) was 0.0005, the relative binding ratio (IC50 of standard peptide / IC50 of test peptide) (ratio to standard peptide) (HLA-A*1101 (human) [2]) was 0.029 and the relative binding ratio (IC50 of standard peptide / IC50 of test peptide) (HLA-A*1101 (human) [3]) was 0.029. The binding affinity ratio (IC50 of the standard peptide / IC50 of the test peptide) (HLA-A*0301 (human) [4]) was 0.0005.

In the case of ELRHYSDSVY (modifications not checked) [HPV18 E6 77 peptide …], the relative binding ratio (IC50 of the standard peptide / IC50 of the test peptide) (ratio to standard peptide) (HLA-A*0101 (human)) is reported as 0.0037.

SPRLQEISL (modifications not checked) [HPV45 E1 110 … (B07 supermotif peptide, 9 amino acids)] was tested, and the binding affinity ratio (IC50 of standard peptide / IC50 of test peptide) (HLA-B*0702 (human)) was 0.62, the binding affinity ratio (IC50 of standard peptide / IC50 of test peptide) (HLA-B*3501 (human)) was 0.0008 and the binding affinity ratio (IC50 of standard peptide / IC50 of test peptide) (HLA-B*5101 (human)) was 0.0005. It also gave a binding affinity ratio (IC50 of standard peptide / IC50 of test peptide) (HLA-B*5301 (human)) of 0.0002.

In the case of MVQWAYDNDI (modifications not checked) [HPV16 E1 360 peptide …], the binding affinity ratio (IC50 of the standard peptide / IC50 of the test peptide) [5] is reported as 0.0001.

In the case of LILALLRYK (modifications not checked) [HPV45 E1 267-275 peptide … (SEQ ID NO: 37427)], the relative binding ratio (IC50 of the standard peptide / IC50 of the test peptide) (HLA-A*0301 (human) [6]) is reported as 0.27.

For AFRDLCIVY (modifications not checked) [HPV16 E6 peptide … (position 53, 9 amino acids; SEQ ID NO: 40120)], the relative binding ratio (IC50 of standard peptide / IC50 of test peptide) (HLA-A*1101 (human) [7]) was 0.0001.

For YNIVTFCCK (modifications not checked) [HPV16 E7 position 52 9-mer peptide … (SEQ ID NO: 40241)], the relative binding ratio (IC50 of standard peptide / IC50 of test peptide) (HLA-A*1101 (human) [8]) was 0.0022.

With QVLHVLKRK (modifications not checked) [HPV18 E1 peptide … (position 80, 9 amino acids)] the relative binding ratio (IC50 of standard peptide / IC50 of test peptide) (HLA-A*1101 (human) [9]) was 0.002.

Work on TMLCMCCK (modifications not checked) [HPV18 E7 60-67 peptide TMLCMCCK (SEQ ID NO: 41224)] yielded a binding affinity ratio (IC50 of standard peptide / IC50 of test peptide) (ratio relative to standard peptide) (HLA-A*1101 (human) [10]) of 0.024.
